# From US20250346685A1 (published 2025)
# T1: Cynomolgus monkey CD3εγ-Fc heterodimer (cynomolgus monkey)
# T1 construct: also called cynomolgus monkey CD3εγ protein
# T1 chain 1: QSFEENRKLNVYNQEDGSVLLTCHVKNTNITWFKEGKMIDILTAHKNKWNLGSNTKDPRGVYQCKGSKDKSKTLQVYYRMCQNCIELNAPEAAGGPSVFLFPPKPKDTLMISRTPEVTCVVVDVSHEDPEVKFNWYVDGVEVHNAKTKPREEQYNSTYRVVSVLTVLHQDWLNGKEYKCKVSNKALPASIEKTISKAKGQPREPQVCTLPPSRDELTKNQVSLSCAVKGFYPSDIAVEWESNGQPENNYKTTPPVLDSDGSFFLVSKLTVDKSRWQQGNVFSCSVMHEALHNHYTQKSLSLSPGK
# T1 chain 2: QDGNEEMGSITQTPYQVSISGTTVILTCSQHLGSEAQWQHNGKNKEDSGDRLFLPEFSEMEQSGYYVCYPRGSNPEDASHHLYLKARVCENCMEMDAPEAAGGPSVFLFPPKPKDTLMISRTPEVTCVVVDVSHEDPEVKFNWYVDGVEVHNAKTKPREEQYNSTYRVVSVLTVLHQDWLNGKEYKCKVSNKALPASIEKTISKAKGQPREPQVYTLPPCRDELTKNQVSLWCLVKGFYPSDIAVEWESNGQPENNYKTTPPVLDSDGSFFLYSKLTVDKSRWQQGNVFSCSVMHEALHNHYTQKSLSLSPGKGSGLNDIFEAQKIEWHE
# T2: human CD3εγ-Fc heterodimer (human)
# T2 construct: also called human CD3εγ recombinant protein; human CD3εγ protein
# T2 chain 1: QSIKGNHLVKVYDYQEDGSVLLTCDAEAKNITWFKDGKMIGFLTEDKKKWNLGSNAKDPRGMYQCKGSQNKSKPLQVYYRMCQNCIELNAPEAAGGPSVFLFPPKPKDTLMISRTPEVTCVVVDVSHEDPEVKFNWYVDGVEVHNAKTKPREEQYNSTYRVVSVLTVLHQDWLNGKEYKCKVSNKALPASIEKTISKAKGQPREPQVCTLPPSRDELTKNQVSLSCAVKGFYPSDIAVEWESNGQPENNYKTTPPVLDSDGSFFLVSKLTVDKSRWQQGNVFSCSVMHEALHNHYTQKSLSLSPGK
# T2 chain 2: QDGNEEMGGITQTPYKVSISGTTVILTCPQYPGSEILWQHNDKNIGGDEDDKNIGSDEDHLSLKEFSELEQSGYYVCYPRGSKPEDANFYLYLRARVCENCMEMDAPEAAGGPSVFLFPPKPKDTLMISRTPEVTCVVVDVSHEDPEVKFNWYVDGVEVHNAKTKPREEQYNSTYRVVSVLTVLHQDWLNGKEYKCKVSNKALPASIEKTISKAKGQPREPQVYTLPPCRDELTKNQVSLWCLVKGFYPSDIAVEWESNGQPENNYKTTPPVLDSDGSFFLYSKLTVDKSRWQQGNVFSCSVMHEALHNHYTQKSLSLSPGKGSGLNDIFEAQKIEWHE
# T3: human CD20 on cells (CHO-human CD20 stably transfected cells; SU-DHL-4, Raji, NALM-6 tumor cells) (human, UniProt P11836 1-297)
# T3 construct: whole, on cells; also called Human CD20-CHO; cellular CD20 receptor
# T3 sequence (looked up): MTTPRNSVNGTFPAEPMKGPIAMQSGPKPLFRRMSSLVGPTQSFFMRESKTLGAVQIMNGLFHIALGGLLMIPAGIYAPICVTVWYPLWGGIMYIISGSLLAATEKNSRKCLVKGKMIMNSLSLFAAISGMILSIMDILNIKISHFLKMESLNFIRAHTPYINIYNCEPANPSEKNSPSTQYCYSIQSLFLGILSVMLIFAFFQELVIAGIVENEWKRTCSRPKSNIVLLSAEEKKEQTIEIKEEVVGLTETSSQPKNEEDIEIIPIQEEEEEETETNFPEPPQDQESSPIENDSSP
# T4: cynomolgus monkey CD20 on CHO stably transfected cells (cynomolgus monkey, UniProt M4ZHZ6 1-297)
# T4 construct: whole, on cells; also called Cynomolgus monkey CD20-CHO; CHO-cynomolgus monkey CD20
# T4 sequence: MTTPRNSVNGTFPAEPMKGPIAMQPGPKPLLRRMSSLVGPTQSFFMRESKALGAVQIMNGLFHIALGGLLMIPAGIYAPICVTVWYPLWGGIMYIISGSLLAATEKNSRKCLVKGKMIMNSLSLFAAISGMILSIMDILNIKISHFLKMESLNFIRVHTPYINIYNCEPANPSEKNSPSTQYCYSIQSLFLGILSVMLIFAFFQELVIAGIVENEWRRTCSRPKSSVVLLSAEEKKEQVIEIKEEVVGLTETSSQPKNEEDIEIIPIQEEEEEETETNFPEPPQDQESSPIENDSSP
# Key:
# [1] = molecular target: T5, human CD3 on T cells (Jurkat cells; human peripheral blood CD4+ and CD8+ T-cells) (human, UniProt P07766 23-207); assay: flow cytometry on Jurkat cells
# T5 construct: whole, on cells; also called CD4T; CD4 + T
# Description: Jurkat cells in logarithmic growth phase were blocked with 3% BSA for 30 min, added to 96-well U-plate at 5×10^4 cells per well, centrifuged to discard the supernatant, and added with 50 μL of gradient diluted antibody (antibody concentration:from 30 μg/mL, with 3-fold dilution for 5 gradients) per well, and incubated at 4° C. for 1 hour. After washing off the primary antibody, a 1:300 dilution of Alexa Fluro647 labeled goat anti-human IgG Fc (Jackson ImmunoResearch, 109-606-170) was added to the secondary antibody, incubated for 45 min at 4° C., and, after washing, resuspended in 50 μL of PBS per well for FACS (iQue, intellicyt) detection.
# [2] = molecular target: T1, Cynomolgus monkey CD3εγ-Fc heterodimer; assay: ELISA, coated cynomolgus monkey CD3εγ protein
# Description: (§1) Human CD3εγ protein and cynomolgus monkey CD3εγ protein were coated separately overnight at 4° C. After blocking with 2% skim milk, different dilutions of CD3 antibody were added to each well and incubated for 1 hour. After the secondary antibody was developed by adding HPR-labeled goat anti-human IgG Fc and TMB solution, the reaction was stopped with concentrated sulfuric acid, and the absorbance was read at 450 nm.
# [3] = molecular target: T2, human CD3εγ-Fc heterodimer; assay: ELISA, coated human CD3εγ recombinant protein
# Description: as §1, with “CD3εγ recombinant” for “CD3εγ”, “was” for “and cynomolgus monkey CD3εγ protein were”, “coated” for “coated separately”, “acid” for “acid,”
# [4] = molecular target: T3, human CD20 on cells (CHO-human CD20 …); assay: flow cytometry on CHO-human CD20 stably transfected cells
# Description: (§2) CHO-human CD20 and CHO-cynomolgus monkey CD20 stably transfected cells prepared in Example 1 in logarithmic growth phase were adjusted to 5×10⁵ cells/ml with 4% calf serum (Hyclone, SH30626.06), 100 μl/well cell suspension was added to 96-well U-plate, 300 g thereof was centrifuged for 5 min, the supernatant was discarded, and 100 μL of gradient diluted antibody (with starting concentration of 1800 nM, 3-fold dilution, 10 gradients) was added to each well and incubated at 4° C. for 60 min. 50 μL/well Alexa Fluro647 labeled goat anti-human IgG Fc (1:300 dilution) was added to the secondary antibody and incubated on ice for 20 min. After washing once, 50 μL/well propidium iodide (PI) solution (1:300) was added, incubated for 5 min, and performed with detection by flow cytometry.
# [5] = molecular target: T4, cynomolgus monkey CD20 on CHO stably …; assay: flow cytometry on CHO-cynomolgus monkey CD20 stably transfected cells
# Description: as §2
Binder,affinity (FACS) [1] [nM],binding result [2],affinity (ELISA) [3] [nM],EC50 [4] [nM],EC50 [5] [nM]
"aCD3-hVH9/VL2 (antibody, human IgG4, V domains shown, also called humanized anti-CD3 antibody hVH9/VL2) VH: EVQLVESGGGLVQPGGSLRLSCAASGFTFNTYAMNWVRKAPGKGLEWVGRIRSKYNNYATYYADSVKDRFTISRDDSKNSLYLQMNSLKTEDTAVYYCVRHGNFGNSYVSWFAYWGQGTLVTVSS VL: QAVVTQEPSLTVSPGGTVTLTCRSSTGAVTTSNYANWVQEKPGQAPRGLIGGTNKRAPWTPARFSGSLLGGKAALTLSGAQPEDEAEYYCALWYSNLWVFGGGTKLTVL",25,binds,0.44,–,–
"aCD3-hVH9/VL5 (antibody, human IgG4, V domains shown, also called humanized anti-CD3 antibody hVH9/VL5) VH: EVQLVESGGGLVQPGGSLRLSCAASGFTFNTYAMNWVRKAPGKGLEWVGRIRSKYNNYATYYADSVKDRFTISRDDSKNSLYLQMNSLKTEDTAVYYCVRHGNFGNSYVSWFAYWGQGTLVTVSS VL: QAVVTQEPSLTVSPGGTVTLTCRSSTGAVTTSNYANWVQEKPGQAPRGLIGGTNKRAPWTPARFSGSLLGGKAALTITGAQAEDEAEYYCVLWYSNLWVFGGGTKLTVL",20,binds,0.42,–,–
"CD20 × CD3 κλ001 (bispecific antibody, human IgG4 S228P, kappa, lambda, also called anti-CD20×CD3 κλ bispecific antibody) light 1: not shown heavy 1: EVQLLESGGGVVQPGGSLRLSCAASGFTFNDYAMHWVRQAPGKGLEWVSTISWNSGSIGYADSVKGRFTISRDNSKNTLYLQMNSLRAEDTAVYYCAKDIQYGNYYYGMDYWGQGTLVTVSSASTKGPSVFPLAPCSRSTSESTAALGCLVKDYFPEPVTVSWNSGALTSGVHTFPAVLQSSGLYSLSSVVTVPSSSLGTKTYTCNVDHKPSNTKVDKRVESKYGPPCPPCPAPEFEGGPSVFLFPPKPKDTLMISRTPEVTCVVVDVSQEDPEVQFNWYVDGVEVHNAKTKPREEQFNSTYRVVSVLTVLHQDWLNGKEYKCKVSNKGLASSIEKTISKAKGQPREPQVCTLPPSQEEMTKNQVSLSCAVKGFYPSDIAVEWESNGQPENNYKTTPPVLDSDGSFFLVSKLTVDKSRWQEGNVFSCSVMHEALHNHYTQKSLSLSLGK light 2: QAVVTQEPSLTVSPGGTVTLTCRSSTGAVTTSNYANWVQQKPGQAPRGLIGGTNKRAPWTPARFSGSLLGGKAALTITGAQAEDEAEYYCVLWYSNLWVFGGGTKLTVLGQPKAAPSVTLFPPSSEELQANKATLVCLISDFYPGAVTVAWKADSSPVKAGVETTTPSKQSNNKYAASSYLSLTPEQWKSHRSYSCQVTHEGSTVEKTVAPTECS heavy 2: EVQLVESGGGLVQPGGSLRLSCAASGFTFNTYAMNWVRQAPGKGLEWVGRIRSKYNNYATYYADSVKDRFTISRDDSKNSLYLQMNSLKTEDTAVYYCVRHGNFGNSYVSWFAYWGQGTLVTVSSASTKGPSVFPLAPCSRSTSESTAALGCLVKDYFPEPVTVSWNSGALTSGVHTFPAVLQSSGLYSLSSVVTVPSSSLGTKTYTCNVDHKPSNTKVDKRVESKYGPPCPPCPAPEFEGGPSVFLFPPKPKDTLMISRTPEVTCVVVDVSQEDPEVQFNWYVDGVEVHNAKTKPREEQFNSTYRVVSVLTVLHQDWLNGKEYKCKVSNKGLASSIEKTISKAKGQPREPQVYTLPPCQEEMTKNQVSLWCLVKGFYPSDIAVEWESNGQPENNYKTTPPVLDSDGSFFLYSKLTVDKSRWQEGNVFSCSVMHEALHNHYTQKSLSLSLGK",–,–,–,10,12
"CD20 × CD3 κλ005 (bispecific antibody, human IgG4 S228P, kappa, lambda, Human IgG4 knob-into-hole Fc; charge variants only in the CD3 arm; also called anti-CD20×CD3 κλ bispecific antibody) light 1: not shown heavy 1: EVQLLESGGGVVQPGGSLRLSCAASGFTFNDYAMHWVRQAPGKGLEWVSTISWNSGSIGYADSVKGRFTISRDNSKNTLYLQMNSLRAEDTAVYYCAKDIQYGNYYYGMDYWGQGTLVTVSSASTKGPSVFPLAPCSRSTSESTAALGCLVKDYFPEPVTVSWNSGALTSGVHTFPAVLQSSGLYSLSSVVTVPSSSLGTKTYTCNVDHKPSNTKVDKRVESKYGPPCPPCPAPEFEGGPSVFLFPPKPKDTLMISRTPEVTCVVVDVSQEDPEVQFNWYVDGVEVHNAKTKPREEQFNSTYRVVSVLTVLHQDWLNGKEYKCKVSNKGLASSIEKTISKAKGQPREPQVCTLPPSQEEMTKNQVSLSCAVKGFYPSDIAVEWESNGQPENNYKTTPPVLDSDGSFFLVSKLTVDKSRWQEGNVFSCSVMHEALHNHYTQKSLSLSLGK light 2: QAVVTQEPSLTVSPGGTVTLTCRSSTGAVTTSNYANWVQEKPGQAPRGLIGGTNKRAPWTPARFSGSLLGGKAALTITGAQAEDEAEYYCVLWYSNLWVFGGGTKLTVLGQPKAAPSVTLFPPSSEELQANKATLVCLISDFYPGAVTVAWKADSSPVKAGVETTTPSKQSNNKYAASSYLSLTPEQWKSHRSYSCQVTHEGSTVEKTVAPTECS heavy 2: EVQLVESGGGLVQPGGSLRLSCAASGFTFNTYAMNWVRKAPGKGLEWVGRIRSKYNNYATYYADSVKDRFTISRDDSKNSLYLQMNSLKTEDTAVYYCVRHGNFGNSYVSWFAYWGQGTLVTVSSASTKGPSVFPLAPCSRSTSESTAALGCLVKDYFPEPVTVSWNSGALTSGVHTFPAVLQSSGLYSLSSVVTVPSSSLGTKTYTCNVDHKPSNTKVDKRVESKYGPPCPPCPAPEFEGGPSVFLFPPKPKDTLMISRTPEVTCVVVDVSQEDPEVQFNWYVDGVEVHNAKTKPREEQFNSTYRVVSVLTVLHQDWLNGKEYKCKVSNKGLASSIEKTISKAKGQPREPQVYTLPPCQEEMTKNQVSLWCLVKGFYPSDIAVEWESNGQPENNYKTTPPVLDSDGSFFLYSKLTVDKSRWQEGNVFSCSVMHEALHNHYTQKSLSLSLGK",–,–,–,9,14
